Reference: the supplement of paper PMC7877785
± gives the uncertainty stated by the source.

Experiment: self-splicing fitness, log relative to wild type (ln ratio); higher = more splicing; Tetrahymena group I intron in knt gene, E. coli kanamycin selection, DiMSum; sequences stand for … in CUCUCU…GGAGGGAAAAGUUAUCAGGCAUGCACCUGGUAGCUAGUCUUUAAACCAAUAGAUUGCAUCGGUUUAAAAGGCAAGACCGUCAAAUUGCGGGAAAGGGGUCAACAGCCGUUCAGUACCAAGUCUCAGGGGAAACUUUGAGAUGGCCUUGCAAAGGGUAUGGUAAUAAGCUGACGGACAUGGUCCUAACCACGCAGCCAAGUCCUAAGUCAACAGAUCUUCUGUUGAUAUGGAUGCAGUUCACAGACUAAAUGUCGGUCGGGGAAGAUGUAUUCUUCUCAUAAGAUAUAGUCGGACCUCUCCUUAAUGGGAGCUAGCGGAUGAAGUGAUGCAACACUGGAGCCGCUGGGAACUAAUUUGUAUGCGAAAGUAUAUUGAUUAGUUUUGGAGUACUCGUGGUCG
Procedure, shortened: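 Pooled colonies went to amplicon sequencing on an Illumina HiSeq 2500 after six replicate transformations. The plates were LB agar with 100 μg/mL carbenicillin, 50 μM IPTG and 0.2% rhamnose, with or without 25 μg/mL kanamycin, incubated overnight at 37°C or 30°C. The E. coli BL21(DE3) library had all eight P1ex-region intron nucleotides randomised, the intron placed in the knt kanamycin-resistance gene on pET-22b(+). DiMSum fitness is the error-weighted combination of replicate fold changes, kanamycin against none, normalised to wild type.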

| Sequence | self-splicing fitness (ln) (37 °C) | self-splicing fitness (ln) (30 °C) |
| --- | --- | --- |
| CUUUAGCAAUAUUACGACUU | -3.6 ± 0.46 | – |
| GGAUAGCAAUAUUACGCACA | 0.321 ± 0.14 | -0.523 ± 0.12 |
| CGGUAGCAAUAUUACGAGCU | -1.89 ± 0.2 | -2.4 ± 0.15 |
| CUCGAGCAAUAUUACGAUCG | -1.71 ± 0.28 | – |
| CCGCAGCAAUAUUACGCCAG | -0.22 ± 0.14 | -0.493 ± 0.091 |
| UACGAGCAAUAUUACGAGGA | -2.48 ± 0.22 | -3.51 ± 0.26 |
| UAUUAGCAAUAUUACGGCGU | -0.989 ± 0.18 | -1.24 ± 0.18 |
| GCGAAGCAAUAUUACGAACU | -0.787 ± 0.17 | -0.877 ± 0.16 |
| GCGGAGCAAUAUUACGCAUG | -2.8 ± 0.44 | – |
| GACUAGCAAUAUUACGGAGC | -2.19 ± 0.2 | -1.58 ± 0.16 |
| UAUUAGCAAUAUUACGUCUG | -0.652 ± 0.1 | 0.0275 ± 0.14 |
| AUGUAGCAAUAUUACGCAGU | -1.29 ± 0.11 | -2.49 ± 0.12 |
| GGCAAGCAAUAUUACGCAAA | -1.2 ± 0.097 | -0.878 ± 0.092 |
| CCGUAGCAAUAUUACGUUCA | -1.91 ± 0.25 | -1.34 ± 0.2 |
| CUUCAGCAAUAUUACGAAGU | -2.66 ± 0.38 | -2.31 ± 0.17 |
| GAAUAGCAAUAUUACGUGAA | -0.782 ± 0.11 | -1.74 ± 0.092 |
| UUCUAGCAAUAUUACGGGAA | -2.8 ± 0.28 | -2.38 ± 0.19 |
| UAGGAGCAAUAUUACGGUAG | -1.56 ± 0.13 | -3.52 ± 0.17 |
| UCGGAGCAAUAUUACGACAU | -2.98 ± 0.052 | -3.91 ± 0.041 |
| AUGAAGCAAUAUUACGCCUU | -1.01 ± 0.14 | -1.9 ± 0.16 |
| CGAAAGCAAUAUUACGGUUA | -2.11 ± 0.1 | -1.85 ± 0.12 |
| UGGUAGCAAUAUUACGCGUG | 0.251 ± 0.1 | -0.581 ± 0.087 |
| AGCCAGCAAUAUUACGCUCC | -2.51 ± 0.21 | -2.35 ± 0.16 |
| UCGUAGCAAUAUUACGUCUC | -2.29 ± 0.22 | -2.93 ± 0.19 |
| CCAGAGCAAUAUUACGGUAC | -1.52 ± 0.26 | -3.29 ± 0.17 |
| ACUGAGCAAUAUUACGUCAG | -2.21 ± 0.19 | -2.94 ± 0.2 |

| Sequence | self-splicing fitness (ln) (37 °C) | self-splicing fitness (ln) (30 °C) |
| --- | --- | --- |
| CAGCAGCAAUAUUACGUCUA | 0.377 ± 0.06 | -0.137 ± 0.045 |
| AUCCAGCAAUAUUACGCGUU | -0.503 ± 0.1 | -1.06 ± 0.087 |
| GCAUAGCAAUAUUACGGAGC | -2.73 ± 0.23 | -3.59 ± 0.25 |
| CCGCAGCAAUAUUACGAAGG | -2.98 ± 0.29 | -3.52 ± 0.18 |
| UUGUAGCAAUAUUACGGACA | -0.454 ± 0.39 | -1.61 ± 0.31 |
| GAAUAGCAAUAUUACGAAAA | -1.02 ± 0.2 | -1.52 ± 0.22 |
| UGGCAGCAAUAUUACGCUCG | -0.0749 ± 0.11 | -0.792 ± 0.083 |
| AAACAGCAAUAUUACGGCCC | -0.625 ± 0.23 | -2.15 ± 0.2 |
| ACAAAGCAAUAUUACGAACA | -0.578 ± 0.1 | -2.3 ± 0.12 |
| GUACAGCAAUAUUACGGCCG | -0.534 ± 0.13 | -1.89 ± 0.1 |
| UCUUAGCAAUAUUACGCCGG | 0.459 ± 0.31 | -1.85 ± 0.26 |
| AAAAAGCAAUAUUACGUAAU | -0.916 ± 0.085 | -1.4 ± 0.063 |
| GUGGAGCAAUAUUACGUGCG | -2.9 ± 0.29 | -2.23 ± 0.15 |
| CCCGAGCAAUAUUACGAACU | -1.58 ± 0.39 | – |
| CCCCAGCAAUAUUACGCAUA | -2.4 ± 0.2 | -2.67 ± 0.14 |
| GCUAAGCAAUAUUACGCCCC | -0.52 ± 0.21 | -1.74 ± 0.28 |
| CUAAAGCAAUAUUACGCUGG | -2.11 ± 0.25 | -3.74 ± 0.22 |
| ACGUAGCAAUAUUACGACGU | -2.31 ± 0.19 | -2.97 ± 0.15 |
| CCGUAGCAAUAUUACGGAAC | -2.13 ± 0.43 | -3.54 ± 0.41 |
| AUAGAGCAAUAUUACGAGUA | -2.52 ± 0.28 | -3.77 ± 0.33 |
| CCGUAGCAAUAUUACGGUUU | -3.05 ± 0.27 | -2.85 ± 0.16 |
| UUUCAGCAAUAUUACGUCGA | -1.25 ± 0.12 | -1.11 ± 0.11 |
| UGGUAGCAAUAUUACGAGCC | -1.91 ± 0.26 | -2.3 ± 0.32 |
| AACAAGCAAUAUUACGCGAC | -1.47 ± 0.21 | -2.41 ± 0.21 |
| GCUCAGCAAUAUUACGUUGC | -1.27 ± 0.16 | -1.99 ± 0.17 |
| UGUAAGCAAUAUUACGCGGG | -0.563 ± 0.15 | -4.06 ± 0.29 |

| Sequence | self-splicing fitness (ln) (37 °C) | self-splicing fitness (ln) (30 °C) |
| --- | --- | --- |
| GCCAAGCAAUAUUACGUAGA | -1.26 ± 0.077 | -1.98 ± 0.064 |
| CCCCAGCAAUAUUACGGCGG | -2.99 ± 0.24 | -3.53 ± 0.17 |
| CGGAAGCAAUAUUACGCUCA | 0.105 ± 0.18 | -1.59 ± 0.17 |
| CUACAGCAAUAUUACGUGGC | -2.44 ± 0.32 | -3.68 ± 0.29 |
| UACCAGCAAUAUUACGAUUG | -1.35 ± 0.079 | -2.62 ± 0.084 |
| UCAAAGCAAUAUUACGUUCC | – | -2.89 ± 0.38 |
| GUUUAGCAAUAUUACGACGA | -0.957 ± 0.24 | -0.271 ± 0.17 |
| GCCCAGCAAUAUUACGACCG | -1.55 ± 0.21 | -2.84 ± 0.18 |
| UUUGAGCAAUAUUACGUCGG | -1.28 ± 0.18 | -3.06 ± 0.21 |
| CAACAGCAAUAUUACGUUCA | 0.193 ± 0.061 | -1.06 ± 0.051 |
| CAUGAGCAAUAUUACGAUUA | -2.02 ± 0.21 | -3.08 ± 0.24 |
| AUCAAGCAAUAUUACGGGCC | -0.86 ± 0.29 | -2.78 ± 0.2 |
| AGGGAGCAAUAUUACGAUCA | -1.5 ± 0.4 | – |
| CAUUAGCAAUAUUACGGGAG | -1.09 ± 0.11 | -1.46 ± 0.12 |
| GCGAAGCAAUAUUACGAUCA | -1.01 ± 0.3 | -1.82 ± 0.34 |
| CAUGAGCAAUAUUACGUCUU | -2.53 ± 0.25 | -4.56 ± 0.34 |
| GCUCAGCAAUAUUACGGAGU | -3.35 ± 0.32 | -4.36 ± 0.29 |
| UCCCAGCAAUAUUACGAAAG | -3.06 ± 0.17 | -3.84 ± 0.33 |
| ACUCAGCAAUAUUACGGGGU | -2.84 ± 0.2 | -3.84 ± 0.19 |
| AAGCAGCAAUAUUACGCCAA | -2.04 ± 0.21 | -2.31 ± 0.21 |
| UAAAAGCAAUAUUACGCCUA | -0.367 ± 0.081 | 0.161 ± 0.073 |
| GCCGAGCAAUAUUACGUGGC | -2.25 ± 0.21 | -3.26 ± 0.14 |
| CUGAAGCAAUAUUACGAGAC | 0.35 ± 0.15 | -0.346 ± 0.11 |
| ACCGAGCAAUAUUACGGACG | 0.0411 ± 0.13 | -2.21 ± 0.15 |
| ACUGAGCAAUAUUACGUAAA | -2.33 ± 0.24 | – |
